Two molecules from paper doi:10.1101/2022.05.23.493104 (bioRxiv, 2022) can be followed below.

The target in data set [1] is T1, CAV1-His (wild type caveolin-1, E. coli expression) (human, UniProt Q03135 1-178).
T1 sequence: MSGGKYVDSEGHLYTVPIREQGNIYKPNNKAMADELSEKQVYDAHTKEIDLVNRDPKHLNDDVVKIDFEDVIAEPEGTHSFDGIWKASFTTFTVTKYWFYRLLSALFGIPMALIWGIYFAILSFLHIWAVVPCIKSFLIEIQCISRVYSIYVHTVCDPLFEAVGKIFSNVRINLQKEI
Description: negative stain electron microscopy.

Data set [2] concerns the molecule itself. Description: negative stain electron microscopy.

B1: P132L-mVenusHis (caveolin-1 P132L with C-terminal mVenus, E. coli expression) (natural protein, human)
chain: MSGGKYVDSEGHLYTVPIREQGNIYKPNNKAMADELSEKQVYDAHTKEIDLVNRDPKHLNDDVVKIDFEDVIAEPEGTHSFDGIWKASFTTFTVTKYWFYRLLSALFGIPMALIWGIYFAILSFLHIWAVVLCIKSFLIEIQCISRVYSIYVHTVCDPLFEAVGKIFSNVRINLQKEI
With B1, the binding result in data set [1] and in data set [2] was “binds” throughout.

B2: P132L-His (caveolin-1 P132L, E. coli expression) (natural protein, human)
chain: MSGGKYVDSEGHLYTVPIREQGNIYKPNNKAMADELSEKQVYDAHTKEIDLVNRDPKHLNDDVVKIDFEDVIAEPEGTHSFDGIWKASFTTFTVTKYWFYRLLSALFGIPMALIWGIYFAILSFLHIWAVVLCIKSFLIEIQCISRVYSIYVHTVCDPLFEAVGKIFSNVRINLQKEI
Consider B2, for which the binding result in data set [2] is on record as “binds”.
